In the supplement of paper PMC12783771:
± gives the standard deviation of the averaged measurements.

B1: library; numbered along this chain (parent)
chain: MNIQIGELAKRTACPVVTIRFYEQEGLLPPPGRSRGNFRLYGEEHVERLQFIRHCRSLDMPLSDVRTLLSYRKRPDQDCGEVNMLLDEHIRQVESRIGALLELKHHLVELREACSGARPAQSCGILQGLSDCVCDTRGTTAHPSD

Columns and labels:
[1] = variants of: B1; assay: sfGFP reporter fluorescence (15 h) (µM FITC); higher = higher leak; conditions: library round: Round 1; ligand: none
Outline: (§1)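 Linear PbrR templates were made by PCR, normalized to 5 nM with an Echo, and expressed in BL21 Star (DE3) PANOx-SP extract with the pPbrR-sfGFP reporter plasmid and 30 μg/mL GamS. Echo-assembled 1 μL reactions held 1 µM lead chloride, 30 µM zinc acetate or no metal and were incubated 15 hr at 30 °C. Endpoint sfGFP fluorescence was read on a Synergy Neo2 and expressed as µM FITC using standard curves. Up to three biological replicates were run.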

[2] = variants of: B1; assay: sfGFP reporter fluorescence (15 h) (µM FITC); higher = stronger transcriptional activation; conditions: library round: Round 1
Outline: as §1

| Variant | sfGFP reporter fluorescence [1] | sfGFP reporter fluorescence ([2]; ligand: 1 µM Pb) | sfGFP reporter fluorescence ([2]; ligand: 30 µM Zn) |
| --- | --- | --- | --- |
| MNIQIGELAKRTACPVVTIRFYEQEGLLPPPGRSRGNFRLYGEEHVERLQFIRHCRSLDMPLSDVRTLLSYRKRPDQDCGEVTMRLDEHIRQVESRIGALLELKHHLVELREACSGARPAQSCGILQGLSDCVCDTRGTTAHPSD [N83T L85R] | 0.061 ± 0.0026 | 0.0607 ± 0.0035 | 0.0601 ± 0.0029 |
| MNIQIGELAKRTACPVVTIRFYEQEGLLPPPGRSRGNFRLYGEEHVERLQFIRHCRSLDMPLSDVRTLLSYRKRPDQDCGEVTMMLDEHIRQVESRIGALLELKHHLVELREACSGARPAQSCGILQGLSDCVCDTRGTTAHPSD [N83T L85M] | 0.0622 ± 0.0036 | 0.0669 ± 0.0024 | 0.105 ± 0.003 |
| MNIQIGELAKRTACPVVTIRFYEQEGLLPPPGRSRGNFRLYGEEHVERLQFIRHCRSLDMPLSDVRTLLSYRKRPDQDCGEVTMALDEHIRQVESRIGALLELKHHLVELREACSGARPAQSCGILQGLSDCVCDTRGTTAHPSD [N83T L85A] | 0.06145 ± 0.00056 | 0.0596 ± 0.0031 | 0.0602 ± 0.00076 |
| MNIQIGELAKRTACPVVTIRFYEQEGLLPPPGRSRGNFRLYGEEHVERLQFIRHCRSLDMPLSDVRTLLSYRKRPDQDCGEVTMLLDEHIRQVESRIGALLELKHHCVELREACSGARPAQSCGILQGLSDCVCATRGTTAHTSD [N83T L107C D135A P143T] | 0.1501 ± 0.0015 | 0.642 ± 0.046 | 1.85 ± 0.12 |
| MNIQIGELAKRTACPVVTIRFYEQEGLLPPPGRSRGNFRLYGEEHVERLQFIRHCRSLDMPLSDVRTLLSYRKRPDQDCGEVTMLLDEHIRQVESRIGALLELVHHIVELREACSGARPAQSCGILQGLSDCVCDTRGTTAHPSD [N83T K104V L107I] | 0.0623 ± 0.0016 | 0.0753 ± 0.0068 | 0.112 ± 0.0052 |
| MNIQIGELAKRTACPVVTIRFYEQEGLLPPPGRSRGNFRLYGEEHVERLQFIRHCRSLDMPLSDVRTLLSYRKRPDQDCGEVTMLLDEHIRQVESRNGALLELKHHLVELREACSGARPAQSCGILQGLSDCVCDTRGTTAHPSD [N83T I97N] | 0.06206 ± 0.00056 | 0.064 ± 0.0017 | 0.0862 ± 0.0011 |
| MNIQIGELAKRTACPVVTIRFYEQEGLLPPPGRSRGNFRLYGEEHVERLQFIRHCRSLDMPLSDVRTLLSYRKRPDQDCGEVTMLLDEHIRQVESRTGALLELKHHLVELREACSGARPAQSCGILQGLSDCVCDTRGTTAHPSD [N83T I97T] | 0.06157 ± 0.00037 | 0.0658 ± 0.0032 | 0.102 ± 0.0039 |
| MNIQIGELAKRTACPVVTIRFYEQEGLLPPPGRSRGNFRLYGEEHVERLQFIRHCRSLDMPLSDVRTLLSYRKRPDQDCGEVTMLLDEHIRQVESRHGALLELKHHLVELREACSGARPAQSCGILQGLSDCVCDTRGTTAHPSD [N83T I97H] | 0.0607 ± 0.0023 | 0.0635 ± 0.00085 | 0.0778 ± 0.0044 |
| MNIQIGELAKRTACPVVTIRFYEQEGLLPPPGRSRGNFRLYGEEHVERLQFIRHCRSLDMPLSDVRTLLSYRKRPDQDCGEVTMLLDEHIRQVESRIGALLELKHHCVELREARSGARPAQSCGILQMLSDCVCDTRGTTAHPSD [N83T L107C C114R G128M] | 0.063 ± 0.0015 | 0.0605 ± 0.0029 | 0.06108 ± 0.00021 |
| MNIQIGELAKRTACPVVTIRFYEQEGLLPPPGRSRGNFRLYGEEHVERLQFIRHCRSLDMPLSDVRTLLSYRKRPDQDCGEVTMLLDEHIRQVESRIGALLELKHHCVELREACSGARPAQSCGILQGLSDCVCDTRGTTAHPSD [N83T L107C] | 0.1001 ± 0.00064 | 0.518 ± 0.13 | 1.53 ± 0.15 |
| MNIQIGELAKRTACPVVTIRFYEQEGLLPPPGRSRGNFRLYGEEHVERLQFIRHCRSLDMPLSDVRTLLSYRKRPDQDCGEVTMLLDEHIRQVESRSGALLELGHHLVELREACSGARPAQSCGILQGLSDCVCDTRGTTAHPSD [N83T I97S K104G] | 0.0612 ± 0.0026 | 0.076 ± 0.0097 | 0.102 ± 0.0094 |
| MNIQIGELAKRTACPVVTIRFYEQEGLLPPPGRSRGNFRLYGEEHVERLQFIRHCRSLDMPLSDVRTLLSYRKRPDQDCGEVTMLLDEHIRQVESRIGALLELRHHLVELREACSGARPAQSCGILQGLSDCVCKTRGTTAHPSD [N83T K104R D135K] | 0.0682 ± 0.00097 | 0.0845 ± 0.0083 | 0.149 ± 0.0056 |
| MNIQIGELAKRTACPVVTIRFYEQEGLLPPPGRSRGNFRLYGEEHVERLQFIRHCRSLDMPLSDVRTLLSYRKRPDQDCGEVTMLLDEHIRQVESRIGALLELKHHCVELREACSGARPAQSCGILQILSDCVCDTRGTTAHPSD [N83T L107C G128I] | 0.195 ± 0.0097 | 0.702 ± 0.17 | 1.75 ± 0.2 |
| MNIQIGELAKRTACPVVTIRFYEQEGLLPPPGRSRGNFRLYGEEHVERLQFIRHCRSLDMPLSDVRTLLSYRKRPDQDCGEVTMLLDEHIRQVESRIGALLELVHHLVELREACSGARPAQSCGILQGLSDCVCDTRGTTAHPSD [N83T K104V] | 0.0623 ± 0.0026 | 0.113 ± 0.0044 | 0.249 ± 0.025 |
